According to a protein production outcome set (Wang et al. 2014):

Test: label from the status in PepcDB records

| Sequence | protein production |
| --- | --- |
| MSRKYLIRITELERLLSEQAEALRQKDQQLSLVEETEAFLRSALARAEEKIEEEEREIEHLRAQIEKLRRMLFGTRSEKLQREVEQAEAQLKQREQESDRYSGREDDPQVPRQLRQSRHRRPLPAHLPREIHRLEPEESCCPECGSELDYLGEVSAEQLELVSSALKVIRTVRVKKACTKCDCIVEAPAPSRPIERGIAGSGLLARVLTGKYCEHLPLYRQSEIFARQGIELSRALLSNWVDACCQLMTLLNDTLYRYVMNTRKVHTDDTPVKVLAPGRKKAKTGRIWTYVRDDRNAGSSEPPAVWFAYSPDRQGKHPVQHLRPFRGILQADAFSGYDRLFSAEREGGALTEVACWAHARRKIHDVYISSKSATAEEALKRISELYAIEDEIRGLPESERLAVRQQRSKVLLTSLHEWMVEKNGTLSKKSRLGEACSYVLNQWDALCYYSDDGLAEADNNAAERALRAVCLGKKNFMFFGSDHGGERGALLYGLIGTCRLNGIDPEAYLRHILSVLPEWPSNRVDELLPWNVVLTNK | failed |
| MRETLERLLASETFGRSERARKLIRYLVEREQAGEADRLKGFSIAMDVFGKDGDFDPSTDAVVRVQAGRLRELLQQYFANEGIAEPVRIAIPRGGYVPAYELNAIRLPEVAKPAEQAAAAAAPAEHPSAAEDAVAPDASLAPAAAPVPSVARHLRFFWMAIAVVIAMLGVLILRQGSGALLAGGHLPATFESAGLTSSIAPSPVSEALPLVYIAVKASGADAGRIAASLRAGLSGFDTIDFIGRDTVDKTDPVNNPTSFIFDILPGPNTGDITIELQSMASGRVLLSRNLTPADSTPTAIEDRVADMLSSALPASGTIYNYIEQTGTPNGLTECLLLNDKYYLDQNARTHEAAYRCLETLANSGAKSSLVYSELASLQVEAVSDHYVYPPNATIEKAVEFAHRGVQMGPTSPYAHRAYGYVSSRLGNTDEAIRWMRKAYELNPYDLGMAAAYGYGLIFAGRYAEGTPILTHAAETFSGHSTWWDYGLFVGDFMLGDMNKAIAASMALRTTATKSHYLAARLIGAKAAGQDSLVTTLLNELNTKFPKFAADPRSTFVERKYPADLTDRLVQALRAAGLGSAS | failed |
| MRLALFDLDNTLLGGDSDHAWGDYLYQRGILDAATYKSRNDEFYQDYLAGTLNMTDYLNFTLEILGNTDMAQLQEWHREFMRDCIEPIMLPKALELIAKHREAGDKLVVITATNRFVTAPIVARLGIETLLATECEMVDGRYTGRTTGVPCFREGKVTRLNQWLEDNAFSLEDSYFYSDSMNDLPLLEQVANPVAVDPDARLRAEAEQRGWPVITLRS | failed |
| MKLSSEKLPKNPFSLSQYAAKQQKFFQWKKEKPDYYLHANLVDTALQFLKERIRRGDAMAYFLRGQLYFEEGWYEEALAQFEEIQEKDHQAIYQLGVMYYDGLGTIANAEKGVNYMRKILDSSCPQTMHLKFAAAYNLGRAYFEGKGVKRSDEEAERLWLLAADNGNPKASVKAQSILGLFYSMKEPKELEKAFFWHSEACGNGSLESQGALGLMYFYGQGIRQDTDAALHCLREAAERGNVYAQGTLVEYYYKMKFFTKCVSFSKRIADYDEVHDIPMIAHVTDCLPEFIIKGMAMAAFYHGRCLQLGLGIMKDEESAKHYYSKACRLNPTLADELHSLLIHQRI | failed |
| EDATPETVEYRQLSAADLLADTHLLREVFGLLVLAHYRTEPSDLARLLDAPNLTVRALTHEGHVVAVALLAQEGGLSASTRATMYEGGRVRGNMLPDVLSTQLRDEAAGVPVGQRVLRIATHAAVRSRGLGSKLLSEIRAEFADHVDWVGVSYGATPELVRFWADNGYNTVHLATSRNATSGEYSVVMLDP | failed |
| MRGADGRVTDADYRELRGATETPREAVVVGLAGEVGLTSAEIPRVRPCDVAPHDHDGVTHYFLAVPGADGGSDRDAYLPPAVERDIRRRADAAGLADDDPLVDVSARRVQTLVNAVAGRTDTAGLDGVAAQDLRSFFARRLLTGAGVDPRVVAAVGGWSRLASLDQYAAVDAVDRDAIARAFDGTTRAPTDRSEQRAHDRVDEAHSAVLAAGDALSDASTRGAVETAVCEALAASDAYEMAWLARPTTRDDVTVAATAGGDRAIRDDASAAPGATLVQAALDDGTGLFTPAASAAPAVAALREHAAAAGVQAMGVVPVAGPEAAHGVLAVGASTARFSQRERTLITDLGRRVGRAVALAEQRHRLLTDTVLEVAFEVRAGSVFARAAVEQGCDLSLEGVVPGDRQTLVFFVRVAGAPADGVRDWLHDHDGVVSVRVVRDQGGEAVLAVGVAPGADLAMAVVSHGGTIRDLSAGPGGERVVAGVAPETDVRALLDALATAFPGVSLAAKRERARGDETGQRDGASLHDALTDKQAAVLRAAFHAGYFEWPRESTAEDLAADMGVTAPTLHNHLRRAQQKLLATVIDSDGGCDPDTPWPDTRQ | failed |
| MATLNKALTRPAAIAGIPIVPFVIVSGAIVLLSVYLSYYLVLLLIPAWLEMKAKARTDIHYFGLLWLAFKTRGRFATNKYFGANAMLANRYDAVDVSEFIEKMKLNERVTLDKHIPYSSHVHPQVIRNRHGDLVSTWELGGTVFECEDEHHLTLMATHLNNVIRSYEGLPITFYLHRIREKYQDAFAASSGIPFSDDVTALYYQPIKEKPLWRHRLFFTLCYAPFSRLEKKAMKAQPSGKRTAALDGALKVMLEHRAALASALSRYTATPLGVYEENGRVYSSQLSFYHRLLTGQWQKVAVTRSPFYDILSTPDVFFTTDTAECQTVSGSRFFRSLEIKDYSPDTATGLLDALLYAESEYVMTQSFTCMARDEAQNHIRLAEKRLNSAADDAISQREELIVLRDLLQSGHVSCGKYHFSLLVSSDSADQVVKDVNALAQPFADLGIMTTLSTLSLPAAYLAQLPGVYTLRPRLVAVSSQNFADMASLHNFHPHKRNGNPWGEAITIMTSPGGGGYYLNLHDSQAGRDDFNEKTPGNTAIIGKTGSGKTMLMTVMQQLMQKYRNPATFSESAPHKRLSTVYFDKDRAAEMAIRQMGGRYFRLRTGVPTGFNPFALAPTKRNISFIKRLVRMLCRRNSKPLDPRDEERISTAVDTIMLDYPPEYRRYGITRLLEVLPEPPTKEARTNGLRIRLKQWAQGGEFGWVFDNETDTFDISDIDNVGIDGTEFLDDDDIRGPITFYLLYRVTGLLDGRRLVMFMDEFWKWLADVEFSRFSLNMLKVIRKLNGIFIPATQSPDEIVRHPIAPAIIEQCGTQIFLANPKASRADYVEKMKVPDSVYDIVRHLDPGERYMVVLKTPLRAGETRPFVSMAKMDLSGLGKITRMLSGSEDNLKLFDALYQEGMQPDDWKDAFLEIAL | failed |
| MTEVSFFLSDNNWYFVVVINNKDFCMKCHRLNEVMELLHPVWEENSDLNLVQLLQKLADEAGFKGQLSDLTDDILIYHLKMRGSAPTEVIPGLKKDYEEDFKTAILRARGVIKD | failed |
| MNGRMSLFLRNSIGVMAAMLAGVATPVANAMDNSLASGVVRFALDTGEASSVVGLAMKLEGESADYLQARLMLASGQHDEARAGFEGVFNGASHRGEAALALAEMAQEDGDLTGAENWYQQARRTGYGEVAQKALLGLAELVRIQGKTDAAGQYLARMEDGYWAAVGYMNLAADFARDDLDSSRALVSLRVAMAMAAKDTDTSRSRALLDQLNLRAGYLALGSDDYDKAIDFLEKVSLESYHTPQALYLHGLALSSKGNHRAAMQSWHRAKKFPLAFPGVSDAWIGMGRGYDLSGYPGQAGESWLAANAAYEGERVTLGKLSERITAEGAYKALVQDARSDDIQWFLADNRTLTQPRMAYLLRFMEEPGAQVAVRRVARLDEMVATLDASKYNLEVFIQALEVFMASAGSGGVAPQTAGLEQQQSDLESRLNGLVEQAATPAQVAELRQLKQSLAGAGRRMGALNQQVVQRPERLETVLDDAGALRDATKDLRYKTLSLREQAARELDALALAFVKKQTQRMTHALDKTEQQIAHLYEYLALENLGEGAQ | failed |
| MADKQPAVNRVVAALLVGGALIAAGYAIRHTVSCFLLSFVTAYLLDPVLVVMERRGVRRPWGILFLYALLAVFSVFFFIVLVPFLSLRWEAFITGLPAYLQKGKQIVFAWKSRAVPPYAVEEWRWLFDTAAGQADKLLAKLGAGVYAAAEGLVFNLFNLVLAPILVFFMLWYKKEFMETAAAWLPASRREVLLALGREVNESIGGYIRGQFMVSVIVAVLSTVALFVIGIDYPIVNGIFAGLASVLPFIGVILATLPPLFFAYVQYESGMVLLQVIGAFSVIYFLEGYLVKPLVFKESMDLNPLVTIIVVMVFGELMGFWGILLAIPIAAAVRAAADHLRRGDFRS | failed |
| MGLSNKFKSFFFLDEEEEYYEEEVAREPEPMQKKTKKEKPSKNRFYAVEEEDAKVVSMQGAQFSSRMVLAEPRVYAEAQELADYLKDYKTVVVNLQRISHDQATRIVDFLSGTVYALGGDIQRVGNNIFLTPDNVEVNGSISEMLDEQNFMLEHHHHHH | failed |
| EYISVKSQNELLEASTPHPGTRNHIPQLDVDANELALVYRARGMSEADAEQKAAEAFVNLRNAEDQAIIDEPRNDEPING | failed |
